This passage reports protein stability index results from the supplement of paper PMC10567573.

B1: INTS3 (parent)
chain: FSDDEEDLNSKGKKREFRFHPIKE
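Further: lentivirally expressed fusions sorted by FACS into six bins by GFP to DsRed ratio, PSI derived from sequencing read proportions per bin multiplied by bin number.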

In this data set the parent is B1. The data set is described as follows: protein stability index of a GFP-peptide fusion (GPS, HEK-293T) (PSI 1-6); higher = more stable. As to conditions: c terminus: a fixed tail appended.
FSDDEEDLNSKGKKREWRFHPIKE: the protein stability index was 2.01.
As to FSDDEEDLNSKGKKREMRFHPIKE, the protein stability index stood at 4.79.
Next, FSDDEEDLNSKGKKREARFHPIKE: 5.13.
As to FSDDEEDLNSKGKKRERRFHPIKE, the protein stability index was determined as 4.97.
Take FSDDEEDLNSKGKKRESRFHPIKE: the protein stability index was 5.44.
For the variant FSDDEEDLNSKGKKREHRFHPIKE, the protein stability index turned out to be 5.01.
In the case of FSDDEEDLNSKGKKREGRFHPIKE it was 5.18; in that of FSDDEEDLNSKGKKREKRFHPIKE, 5.12; in that of FSDDEEDLNSKGKKRETRFHPIKE, 5.04.
As to FSDDEEDLNSKGKKREPRFHPIKE, the protein stability index stood at 5.06.
Take FSDDEEDLNSKGKKREERFHPIKE: the protein stability index was 5.03.
As for FSDDEEDLNSKGKKRECRFHPIKE, the protein stability index turned out to be 5.31.
In the case of FSDDEEDLNSKGKKRELRFHPIKE it was 4.76; in that of FSDDEEDLNSKGKKRENRFHPIKE, 5.01.
Regarding FSDDEEDLNSKGKKREQRFHPIKE, the protein stability index is 5.18.
Regarding FSDDEEDLNSKGKKREVRFHPIKE, the protein stability index was 4.85.
On to FSDDEEDLNSKGKKREDRFHPIKE, for which the protein stability index was 4.43.
Next, FSDDEEDLNSKGKKREIRFHPIKE: 4.9.
Consider FSDDEEDLNSKGKKREYRFHPIKE, for which the protein stability index is 4.35.
On to FSDDEEDLNSKGKKHEFRFHPIKE, for which the protein stability index stood at 2.26.
In the case of FSDDEEDLNSKGKKTEFRFHPIKE it was 3.38; in that of FSDDEEDLNSKGKKWEFRFHPIKE, 2.42.
In the case of FSDDEEDLNSKGKKFEFRFHPIKE, the protein stability index came to 2.81.
For FSDDEEDLNSKGKKEEFRFHPIKE, the protein stability index came out at 4.63.
FSDDEEDLNSKGKKMEFRFHPIKE: the protein stability index was found to be 2.56.
In the case of FSDDEEDLNSKGKKQEFRFHPIKE, the protein stability index was 3.62.
Next, FSDDEEDLNSKGKKCEFRFHPIKE: 3.31.
As to FSDDEEDLNSKGKKDEFRFHPIKE, the protein stability index came out at 3.94.
With FSDDEEDLNSKGKKIEFRFHPIKE, the protein stability index was 3.47.
For FSDDEEDLNSKGKKKEFRFHPIKE, the protein stability index is 3.89.
FSDDEEDLNSKGKKLEFRFHPIKE: the protein stability index turned out to be 2.53.
In the case of FSDDEEDLNSKGKKNEFRFHPIKE it was 3.49.
Take FSDDEEDLNSKGKKAEFRFHPIKE: the protein stability index was determined as 3.8.
For FSDDEEDLNSKGKKSEFRFHPIKE, the protein stability index amounted to 3.6.
FSDDEEDLNSKGKKYEFRFHPIKE: the protein stability index turned out to be 2.56.
On to FSDDEEDLNSKGKKVEFRFHPIKE, for which the protein stability index came out at 3.14.
On to FSDDEEDLNSKGKKPEFRFHPIKE, for which the protein stability index was determined as 2.6.
On to FSDDEEDLNSKGKKGEFRFHPIKE, for which the protein stability index came out at 3.2.
Regarding FSDDEEDLNSKGKKREFRKHPIKE, the protein stability index came out at 5.4.
For the variant FSDDEEDLNSKGKKREFRMHPIKE, the protein stability index was 4.86.
Next, FSDDEEDLNSKGKKREFRRHPIKE: 5.29; FSDDEEDLNSKGKKREFRDHPIKE: 5.53; FSDDEEDLNSKGKKREFRGHPIKE: 4.98.
Consider FSDDEEDLNSKGKKREFRHHPIKE, for which the protein stability index was 5.29.
Next, FSDDEEDLNSKGKKREFRSHPIKE: 5.6; FSDDEEDLNSKGKKREFRCHPIKE: 4.98; FSDDEEDLNSKGKKREFRYHPIKE: 3.49.
Turning to FSDDEEDLNSKGKKREFRNHPIKE, the protein stability index was found to be 5.26.
In the case of FSDDEEDLNSKGKKREFRVHPIKE it was 5.1; in that of FSDDEEDLNSKGKKREFRAHPIKE, 5.07.
As for FSDDEEDLNSKGKKREFRQHPIKE, the protein stability index is 5.14.
For FSDDEEDLNSKGKKREFRTHPIKE, the protein stability index was 5.06.
Next, FSDDEEDLNSKGKKREFRIHPIKE: 4.68; FSDDEEDLNSKGKKREFRPHPIKE: 5.07; FSDDEEDLNSKGKKREFRLHPIKE: 4.67.
In the case of FSDDEEDLNSKGKKREFRWHPIKE it was 3.72.
FSDDEEDLNSKGKKREFREHPIKE: the protein stability index came out at 5.59.
Turning to FSDDEEDLNSKGKKRKFRFHPIKE, the protein stability index was 3.69.
FSDDEEDLNSKGKKRPFRFHPIKE: the protein stability index came out at 2.17.
For FSDDEEDLNSKGKKRIFRFHPIKE, the protein stability index worked out at 2.58.
Regarding FSDDEEDLNSKGKKRSFRFHPIKE, the protein stability index is 2.93.
Turning to FSDDEEDLNSKGKKRFFRFHPIKE, the protein stability index was 3.05.
Next, FSDDEEDLNSKGKKRVFRFHPIKE: 2.89; FSDDEEDLNSKGKKRNFRFHPIKE: 2.88.
As for FSDDEEDLNSKGKKRRFRFHPIKE, the protein stability index was found to be 2.23.
For FSDDEEDLNSKGKKRLFRFHPIKE, the protein stability index worked out at 3.46.
In the case of FSDDEEDLNSKGKKRTFRFHPIKE it was 2.67; in that of FSDDEEDLNSKGKKRDFRFHPIKE, 4; in that of FSDDEEDLNSKGKKRHFRFHPIKE, 3.08.
FSDDEEDLNSKGKKRGFRFHPIKE: the protein stability index turned out to be 2.41.
Consider FSDDEEDLNSKGKKRMFRFHPIKE, for which the protein stability index stood at 2.74.
Next, FSDDEEDLNSKGKKRCFRFHPIKE: 2.37; FSDDEEDLNSKGKKRYFRFHPIKE: 2.61; FSDDEEDLNSKGKKRWFRFHPIKE: 2.45.
As for FSDDEEDLNSKGKKRQFRFHPIKE, the protein stability index worked out at 2.61.
On to FSDDEEDLNSKGKKRAFRFHPIKE, for which the protein stability index worked out at 2.25.
With FSDDEEDLNSKGKKREFRFHAIKE, the protein stability index amounted to 3.98.
Next, FSDDEEDLNSKGKKREFRFHCIKE: 3.28.
On to FSDDEEDLNSKGKKREFRFHMIKE, for which the protein stability index was found to be 3.32.
Turning to FSDDEEDLNSKGKKREFRFHEIKE, the protein stability index came to 4.
Turning to FSDDEEDLNSKGKKREFRFHRIKE, the protein stability index was found to be 4.19.
As to FSDDEEDLNSKGKKREFRFHDIKE, the protein stability index came out at 3.76.
With FSDDEEDLNSKGKKREFRFHHIKE, the protein stability index is 4.01.
Regarding FSDDEEDLNSKGKKREFRFHGIKE, the protein stability index amounted to 4.16.
Consider FSDDEEDLNSKGKKREFRFHWIKE, for which the protein stability index was 2.53.
As to FSDDEEDLNSKGKKREFRFHQIKE, the protein stability index is 3.44.
Turning to FSDDEEDLNSKGKKREFRFHIIKE, the protein stability index came to 3.7.
In the case of FSDDEEDLNSKGKKREFRFHYIKE, the protein stability index is 3.73.
On to FSDDEEDLNSKGKKREFRFHKIKE, for which the protein stability index is 4.55.
On to FSDDEEDLNSKGKKREFRFHNIKE, for which the protein stability index came to 4.11.
Consider FSDDEEDLNSKGKKREFRFHFIKE, for which the protein stability index was determined as 3.58.
With FSDDEEDLNSKGKKREFRFHSIKE, the protein stability index stood at 3.88.
Regarding FSDDEEDLNSKGKKREFRFHLIKE, the protein stability index was found to be 4.25.
In the case of FSDDEEDLNSKGKKREFRFHTIKE it was 4.43.
